Assay results reported in the supplement of paper PMC9428881.
± gives the standard error.

Assay: background-corrected fluorescence of 3'-dye-labeled ssDNA relative to brightest sequence (3'-GCGCG) (fraction); higher = brighter dye fluorescence (less quenching)
Conditions: dye: Cy3 (3' terminal)
Protocol: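 Single-stranded DNA is synthesized in situ on glass microarrays by 5'->3' photolithographic synthesis, with a Cy3 or Cy5 phosphoramidite coupled at the 3' end next to all 1024 permuted pentamers P1-P5. The construct is 5'-T5-(ACGT minus P5..P1 trinucleotides)-T15-P5P4P3P2P1-dye-3'; the dye is a 3' terminal modification, not part of the sequence. Arrays were scanned at 532 nm (Cy3) or 635 nm (Cy5), background from unlabeled oligos was subtracted, and values are averaged over 10 replicate features per array and at least 3 independent syntheses.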

Sequence | background-corrected fluorescence
TTTTTGCAGCAGCAGCAGCATTTTTTTTTTTTTTTTTTTT | 0.489 ± 0.032
TTTTTGCAGCAGCAGCATCATTTTTTTTTTTTTTTTTTTG [GTTTT] | 0.461 ± 0.0051
TTTTTGCAGCAGCAGCATGATTTTTTTTTTTTTTTTTTTC [CTTTT] | 0.373 ± 0.032
TTTTTGCAGCAGCAGCATGCTTTTTTTTTTTTTTTTTTTA [ATTTT] | 0.501 ± 0.033
TTTTTGCAGCAGCATCAGCATTTTTTTTTTTTTTTTTTGT [TGTTT] | 0.649 ± 0.02
TTTTTGCAGCAGCATCATCATTTTTTTTTTTTTTTTTTGG [GGTTT] | 0.612 ± 0.01
TTTTTGCAGCAGCATCATGATTTTTTTTTTTTTTTTTTGC [CGTTT] | 0.495 ± 0.024
TTTTTGCAGCAGCATCATGCTTTTTTTTTTTTTTTTTTGA [AGTTT] | 0.634 ± 0.029
TTTTTGCAGCAGCATGAGCATTTTTTTTTTTTTTTTTTCT [TCTTT] | 0.463 ± 0.024
TTTTTGCAGCAGCATGATCATTTTTTTTTTTTTTTTTTCG [GCTTT] | 0.468 ± 0.011
TTTTTGCAGCAGCATGATGATTTTTTTTTTTTTTTTTTCC [CCTTT] | 0.363 ± 0.017
TTTTTGCAGCAGCATGATGCTTTTTTTTTTTTTTTTTTCA [ACTTT] | 0.482 ± 0.032
TTTTTGCAGCAGCATGCGCATTTTTTTTTTTTTTTTTTAT [TATTT] | 0.503 ± 0.033
TTTTTGCAGCAGCATGCTCATTTTTTTTTTTTTTTTTTAG [GATTT] | 0.511 ± 0.015
TTTTTGCAGCAGCATGCTGATTTTTTTTTTTTTTTTTTAC [CATTT] | 0.391 ± 0.039
TTTTTGCAGCAGCATGCTGCTTTTTTTTTTTTTTTTTTAA [AATTT] | 0.569 ± 0.036
TTTTTGCAGCATCAGCAGCATTTTTTTTTTTTTTTTTGTT | 0.554 ± 0.018
TTTTTGCAGCATCAGCATCATTTTTTTTTTTTTTTTTGTG [GTGTT] | 0.524 ± 0.031
TTTTTGCAGCATCAGCATGATTTTTTTTTTTTTTTTTGTC [CTGTT] | 0.407 ± 0.013
TTTTTGCAGCATCAGCATGCTTTTTTTTTTTTTTTTTGTA [ATGTT] | 0.576 ± 0.02
TTTTTGCAGCATCATCAGCATTTTTTTTTTTTTTTTTGGT [TGGTT] | 0.689 ± 0.017
TTTTTGCAGCATCATCATCATTTTTTTTTTTTTTTTTGGG [GGGTT] | 0.661 ± 0.029

Sequence | background-corrected fluorescence
TTTTTGCAGCATCATCATGATTTTTTTTTTTTTTTTTGGC [CGGTT] | 0.556 ± 0.017
TTTTTGCAGCATCATCATGCTTTTTTTTTTTTTTTTTGGA [AGGTT] | 0.689 ± 0.02
TTTTTGCAGCATCATGAGCATTTTTTTTTTTTTTTTTGCT [TCGTT] | 0.482 ± 0.014
TTTTTGCAGCATCATGATCATTTTTTTTTTTTTTTTTGCG [GCGTT] | 0.559 ± 0.028
TTTTTGCAGCATCATGATGATTTTTTTTTTTTTTTTTGCC [CCGTT] | 0.41 ± 0.015
TTTTTGCAGCATCATGATGCTTTTTTTTTTTTTTTTTGCA [ACGTT] | 0.546 ± 0.025
TTTTTGCAGCATCATGCGCATTTTTTTTTTTTTTTTTGAT [TAGTT] | 0.578 ± 0.013
TTTTTGCAGCATCATGCTCATTTTTTTTTTTTTTTTTGAG [GAGTT] | 0.542 ± 0.0086
TTTTTGCAGCATCATGCTGATTTTTTTTTTTTTTTTTGAC [CAGTT] | 0.461 ± 0.024
TTTTTGCAGCATCATGCTGCTTTTTTTTTTTTTTTTTGAA [AAGTT] | 0.634 ± 0.019
TTTTTGCAGCATGAGCAGCATTTTTTTTTTTTTTTTTCTT | 0.481 ± 0.015
TTTTTGCAGCATGAGCATCATTTTTTTTTTTTTTTTTCTG [GTCTT] | 0.472 ± 0.026
TTTTTGCAGCATGAGCATGATTTTTTTTTTTTTTTTTCTC [CTCTT] | 0.389 ± 0.03
TTTTTGCAGCATGAGCATGCTTTTTTTTTTTTTTTTTCTA [ATCTT] | 0.467 ± 0.02
TTTTTGCAGCATGATCAGCATTTTTTTTTTTTTTTTTCGT [TGCTT] | 0.564 ± 0.013
TTTTTGCAGCATGATCATCATTTTTTTTTTTTTTTTTCGG [GGCTT] | 0.59 ± 0.022
TTTTTGCAGCATGATCATGATTTTTTTTTTTTTTTTTCGC [CGCTT] | 0.503 ± 0.031
TTTTTGCAGCATGATCATGCTTTTTTTTTTTTTTTTTCGA [AGCTT] | 0.645 ± 0.025
TTTTTGCAGCATGATGAGCATTTTTTTTTTTTTTTTTCCT [TCCTT] | 0.444 ± 0.021
TTTTTGCAGCATGATGATCATTTTTTTTTTTTTTTTTCCG [GCCTT] | 0.488 ± 0.011
TTTTTGCAGCATGATGATGATTTTTTTTTTTTTTTTTCCC [CCCTT] | 0.35 ± 0.0099
TTTTTGCAGCATGATGATGCTTTTTTTTTTTTTTTTTCCA [ACCTT] | 0.453 ± 0.026

Sequence | background-corrected fluorescence
TTTTTGCAGCATGATGCGCATTTTTTTTTTTTTTTTTCAT [TACTT] | 0.519 ± 0.033
TTTTTGCAGCATGATGCTCATTTTTTTTTTTTTTTTTCAG [GACTT] | 0.506 ± 0.032
TTTTTGCAGCATGATGCTGATTTTTTTTTTTTTTTTTCAC [CACTT] | 0.385 ± 0.01
TTTTTGCAGCATGATGCTGCTTTTTTTTTTTTTTTTTCAA [AACTT] | 0.545 ± 0.04
TTTTTGCAGCATGCGCAGCATTTTTTTTTTTTTTTTTATT | 0.5242 ± 0.0046
TTTTTGCAGCATGCGCATCATTTTTTTTTTTTTTTTTATG [GTATT] | 0.467 ± 0.015
TTTTTGCAGCATGCGCATGATTTTTTTTTTTTTTTTTATC [CTATT] | 0.473 ± 0.024
TTTTTGCAGCATGCGCATGCTTTTTTTTTTTTTTTTTATA [ATATT] | 0.538 ± 0.038
TTTTTGCAGCATGCTCAGCATTTTTTTTTTTTTTTTTAGT [TGATT] | 0.619 ± 0.012
TTTTTGCAGCATGCTCATCATTTTTTTTTTTTTTTTTAGG [GGATT] | 0.612 ± 0.027
TTTTTGCAGCATGCTCATGATTTTTTTTTTTTTTTTTAGC [CGATT] | 0.506 ± 0.028
TTTTTGCAGCATGCTCATGCTTTTTTTTTTTTTTTTTAGA [AGATT] | 0.6442 ± 0.0061
TTTTTGCAGCATGCTGAGCATTTTTTTTTTTTTTTTTACT [TCATT] | 0.49 ± 0.013
TTTTTGCAGCATGCTGATCATTTTTTTTTTTTTTTTTACG [GCATT] | 0.5 ± 0.023
TTTTTGCAGCATGCTGATGATTTTTTTTTTTTTTTTTACC [CCATT] | 0.388 ± 0.019
TTTTTGCAGCATGCTGATGCTTTTTTTTTTTTTTTTTACA [ACATT] | 0.502 ± 0.01
TTTTTGCAGCATGCTGCGCATTTTTTTTTTTTTTTTTAAT [TAATT] | 0.576 ± 0.018
TTTTTGCAGCATGCTGCTCATTTTTTTTTTTTTTTTTAAG [GAATT] | 0.536 ± 0.025
TTTTTGCAGCATGCTGCTGATTTTTTTTTTTTTTTTTAAC [CAATT] | 0.408 ± 0.011
TTTTTGCAGCATGCTGCTGCTTTTTTTTTTTTTTTTTAAA [AAATT] | 0.63 ± 0.021
TTTTTGCATCAGCAGCAGCATTTTTTTTTTTTTTTTGTTT | 0.511 ± 0.028
TTTTTGCATCAGCAGCATCATTTTTTTTTTTTTTTTGTTG [GTTGT] | 0.515 ± 0.027
